Experimental data as given in PMC10825186, “A universal metabolite repair enzyme removes a strong inhibitor of the TCA cycle” (Nature Communications, 2024).
Changes are numbered by the printed parent chain. Names and notes keep the numbering of the source.

B1: Sc FMP41 (Saccharomyces cerevisiae S288C) (protein)
chain: MSYNYLKAARKIICIGRNYAAHIKELNNSTPKQPFFFLKPTSSIVTPLSSSLVKTTRPANSTFNGLNEDGTNPGPIFIPRGVKVHHEIELALIVSKHLSNVTKMKPEEVYDSISGVALALDLTARNVQDEAKKKGLPWTISKGFDTFMPISAIVSREKFSSYKSNLQDIFRVKCSVNGQLRQDGGTNLMLHPLHKILQHISTMISLEPGDIILTGTPAGVGELKPGDRVHCELLQNNDNIVDMNFECENRPGPYEFRET
B2: Hs FAHD1 (Homo sapiens) (protein)
chain: MGIMAASRPLSRFWEWGKNIVCVGRNYADHVREMRSAVLSEPVLFLKPSTAYAPEGSPILMPAYTRNLHHELELGVVMGKRCRAVPEAAAMDYVGGYALCLDMTARDVQDECKKKGLPWTLAKSFTASCPVSAFVPKEKIPDPHKLKLWLKVNGELRQEGETSSMIFSIPYIISYVSKIITLEEGDIILTGTPKGVGPVKENDEIEAGIHGLVSMTFKVEKPEY
B3: Hs FAHD2A (Homo sapiens) (protein)
chain: AAQLPVLPRSEVTFLAPVTRPDKVVCVGMNYVDHCKEQNVPVPKEPIIFSKFASSIVGPYDEVVLPPQSQEVDWEVELAVVIGKKGKHIKATDAMAHVAGFTVAHDVSARDWQMRRNGKQWLLGKTFDTFCPLGPALVTKDSVADPHNLKICCRVNGEVVQSGNTNQMVFKTEDLIAWVSQFVTFYPGDVILTGTPPGVGVFRKPPVFLKKGDEVQCEIEELGVIINKVV
B4: Hs FAHD2B (Homo sapiens) (protein)
chain: B3 chain with R9W, R20W, Q113L, M114T, G163S
B5: Bs YisK (Bacillus subtilis subsp. subtilis str. 168) (protein)
chain: MKFATGELYNRMFVGLIIDDEKIMDLQKAEKKLFELETIPGSLIECIAEGDKFVAHARQLAEWAKKPNDELGSFMYSLSEVKLHAPIPKPSKNIICIGKNYRDHAIEMGSEADIPEHPMVFTKSPVTVTGHGDIVKSHEEVTSQLDYEGELAVVIGKSGTRISKEDAYDHVFGYTIVNDITARDLQKRHKQFFIGKSLDTTCPMGPVLVHKSSIQEPERLKVETRVNGELRQSGSASDMIFSIPELIETLSKGMTLEAGDIIATGTPSGVGKGFTPPKFLRSGDKIDITIDPIGTLSNQIG
B6: Bt FAHD2A (Bos taurus) (protein)
chain: ATQLPVLPRSEVTFLAPVTRPDKVVCVGMNYADHCREQNVPVPKEPIIFSKFASAIVGPYDNIILPPESQEVDWEVELAVVIGKRGKYIKATDAMAHVAGFTVAHDVSARDWQMGRNGKQWLLGKTFDTFCPLGPALVTKDSVADPHNLKICCRVNGEVMQSSNTNQMVFKTEELITWVSQFVTLYPGDIILTGTPPGVGVFRKPPVFLKKGDEVQCEIEELGVIINKVV
B7: Ec YcgM (Escherichia coli K-12) (protein)
chain: MYQHHNWQGALLDYPVSKVVCVGSNYAKHIKEMGSAVPEEPVLFIKPETALCDLRQPLAIPSDFGSVHHEVELAVLIGATLRQATEEHVRKAIAGYGVALDLTLRDVQGKMKKAGQPWEKAKAFDNSCPLSGFIPAAEFTGDPQNTTLSLSVNGEQRQQGTTADMIHKIVPLIAYMSKFFTLKAGDVVLTGTPDGVGPLQSGDELTVTFDGHSLTTRVL

substrate: O=C(O)C=C(O)C(=O)O; test: purified protein; conditions: pH 7.5, 22 °C, 10 mM potassium phosphate, 0.3 mM NADH, malate dehydrogenase, OAA added in dry acetone

Molecule | Km | Vmax | kcat | kcat/Km
B1 | 219 ± 23 µM | 717 µmol/min/mg | 369 s⁻¹ | 1.75e+06 M⁻¹ s⁻¹
B2 | 15.8 ± 5.9 µM | 69 µmol/min/mg | 31.1 s⁻¹ | 1.99e+06 M⁻¹ s⁻¹
B3 | 22.2 ± 3.6 µM | 22.2 µmol/min/mg | 13.6 s⁻¹ | 628000 M⁻¹ s⁻¹
B4 | 296 ± 12 µM | 112 µmol/min/mg | 68.7 s⁻¹ | 232000 M⁻¹ s⁻¹
B5 | 43.8 ± 8.1 µM | 402 µmol/min/mg | 237 s⁻¹ | 5.81e+06 M⁻¹ s⁻¹
B6 | 20.2 ± 1.4 µM | 53.5 µmol/min/mg | 32.7 s⁻¹ | 1.63e+06 M⁻¹ s⁻¹
B7 | 26.9 ± 0.4 µM | 372 µmol/min/mg | 161 s⁻¹ | 5.95e+06 M⁻¹ s⁻¹

biological target: T1, bovine succinate dehydrogenase (SDH) (Bos taurus, UniProt P31039); test: DCIP reduction at […] nm; format: biochemical; conditions: 2 mM malate, 0.1 mM decylubiquinone, GOT and glutamate, pH 7.1, 22 °C; product enol-OAA
T1 construct: gene SDHA; native complex II, dodecyl-maltoside-solubilized and enriched from bovine heart submitochondrial particles; with Succinate dehydrogenase [ubiquinone] iron-sulfur subunit, mitochondrial; Succinate dehydrogenase cytochrome b560 subunit, mitochondrial; Succinate dehydrogenase [ubiquinone] cytochrome b small subunit, mitochondrial
T1 sequence (P31039 44-665): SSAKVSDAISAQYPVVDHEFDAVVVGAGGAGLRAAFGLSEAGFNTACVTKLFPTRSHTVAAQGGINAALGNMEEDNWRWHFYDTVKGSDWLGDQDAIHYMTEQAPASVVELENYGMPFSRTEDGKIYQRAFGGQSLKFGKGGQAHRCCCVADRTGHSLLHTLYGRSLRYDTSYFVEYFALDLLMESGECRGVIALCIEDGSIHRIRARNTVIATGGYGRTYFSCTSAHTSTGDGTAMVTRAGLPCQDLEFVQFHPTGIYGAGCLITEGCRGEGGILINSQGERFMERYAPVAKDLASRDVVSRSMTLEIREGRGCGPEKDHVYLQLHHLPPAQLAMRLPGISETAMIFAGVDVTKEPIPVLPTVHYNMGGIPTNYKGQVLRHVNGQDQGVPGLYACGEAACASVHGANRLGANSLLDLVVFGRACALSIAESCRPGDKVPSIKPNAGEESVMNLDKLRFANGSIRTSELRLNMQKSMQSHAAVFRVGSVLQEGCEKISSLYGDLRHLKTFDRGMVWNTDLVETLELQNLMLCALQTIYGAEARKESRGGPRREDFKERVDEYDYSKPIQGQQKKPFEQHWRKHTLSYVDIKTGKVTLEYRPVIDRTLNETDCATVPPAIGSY
T1 sequence (Q3T189 29-280 partner): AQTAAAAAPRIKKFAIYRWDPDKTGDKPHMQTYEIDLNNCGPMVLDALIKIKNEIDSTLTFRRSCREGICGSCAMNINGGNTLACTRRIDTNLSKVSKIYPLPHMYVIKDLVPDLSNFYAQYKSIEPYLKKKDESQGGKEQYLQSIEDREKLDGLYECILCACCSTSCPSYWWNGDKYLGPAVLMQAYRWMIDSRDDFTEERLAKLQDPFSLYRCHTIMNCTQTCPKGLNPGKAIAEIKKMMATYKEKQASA
T1 sequence (P35720 30-169 partner): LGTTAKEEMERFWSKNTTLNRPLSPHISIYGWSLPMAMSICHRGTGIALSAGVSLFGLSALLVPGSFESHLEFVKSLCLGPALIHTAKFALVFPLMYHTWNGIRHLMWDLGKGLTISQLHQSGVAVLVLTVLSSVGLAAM
T1 sequence (Q95123 56-158 partner): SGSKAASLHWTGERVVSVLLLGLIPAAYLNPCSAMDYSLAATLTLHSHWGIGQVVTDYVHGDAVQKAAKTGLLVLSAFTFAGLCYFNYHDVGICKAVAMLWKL

Molecule | DCIP reduction at 600 nm
O=C(O)C[C@H](O)C(=O)O [malate] | These results confirm that malate oxidation by SDH forms enol-OAA
